According to publication PMC10869273:

Assays:
Test in all cases: BLI
H3 Panama = biological target: H3 Panama
H3 Victoria = biological target: H3 Victoria
H5 Vietnam = biological target: H5 Vietnam
H1 Caledonia = biological target: H1 Caledonia
H2 Japan = biological target: H2 Japan
[1] = biological target: HA H1 Solomon (A/Solomon Islands/3/2006(H1N1)); conditions: monovalent Fab

Substance	Kd (H3 Panama) [pM]	Kd (H3 Victoria) [pM]	Kd (H5 Vietnam) [pM]	Kd (H1 Caledonia) [pM]	Kd (H2 Japan) [pM]	Kd [1] [pM]
MEDI8852 VH E65P Fab	< 1	< 1	< 1	< 1	< 1	–
MEDI8852 unmutated common ancestor (UCA) Fab (wild-type) VH:K58S; VH:V65P; VL:G95P	–	–	–	–	–	50000
